Measured values reported in patent US20250296997A1 (Eli Lilly, published 2025).

Legend:
[1] = target: T1, human IL-34 (human, UniProt Q6ZMJ4 21-242, Biotinylated in the CSF1R displacement ELISA (sites not given); secreted homodimer, one monomer chain given.); assay: competition ELISA: displacement of biotinylated human IL-34 (3.7 nM) from plate-bound hCSF1R_Fc
T1 construct: Biotinylated in the CSF1R displacement ELISA; also called hIL-34; h IL-34
T1 sequence: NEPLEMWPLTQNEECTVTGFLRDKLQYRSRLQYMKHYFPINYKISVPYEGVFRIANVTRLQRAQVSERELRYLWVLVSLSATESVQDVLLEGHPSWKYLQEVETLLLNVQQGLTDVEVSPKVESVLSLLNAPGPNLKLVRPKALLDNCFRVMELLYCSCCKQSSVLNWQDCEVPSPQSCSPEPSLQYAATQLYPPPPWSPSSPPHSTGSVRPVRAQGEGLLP
Method: (§1) CSF1R extracellular domain proteins (hCSFIR_Fc commercially available from R&D Cat #329-MR, cynomolgus CSFIR ECD-Fc (AAA is a linker between CSF1R extracellular domain and Fc) (SEQ ID NO: 53)) can be bound to an ELISA plate at concentrations of 30 nM in order to capture soluble biotinylated IL-34 and allowed to bind for one hour. After washing and blocking plate, biotinylated IL-34 may be added, then detected via streptavidin conjugated peroxidase. Concentrations of labeled IL-34 near the 80% binding level (EC₈₀) (3.7 nM) may be used in conjunction with a range of antibody concentrations (0-100 nM) to determine concentration of antibody required to displace IL-34 from CSF1R. After 1 hr incubation, IL-34 bound to CSFIR is detected via streptavidin conjugated peroxidase. The antibodies are assayed (n=2) and the average and standard deviation at each concentration are calculated. The potency of an antibody to displace IL-34 from CSFIR is reported as IC₅₀ (nM) with the calculated confidence interval (CI) in Table 4 and Table 5.

[2] = target: T1, human IL-34; assay: SPR, BIAcore 8K, 37 C, antibody captured on Protein A chip, IL-34 flowed; mean of at least three experiments (SD 4.4E+05 in r10c4)
Method: (§2) Binding affinity of anti-IL-34 monoclonal antibodies of the present disclosure to human and/or cynomolgus monkey (cyno) IL-34 may be determined by methods known in the art. Briefly, the binding affinity and kinetics of the antibody are evaluated by surface plasmon resonance using BIAcore™ 8K (Cytiva) at 37° C. […] For each cycle, 200 μL IL-34 is flowed over the immobilized antibody at 100 μL/minute, and then dissociated for 20 minutes. The chip surface is regenerated with 50 μL of glycine buffer at pH 1.5 at a flow rate of 100 μL/minute. The data are fit to a 1:1 Langmiur binding mode to derive kon, koff and to calculate KD.

[3] = target: T1, human IL-34; assay: SPR, BIAcore 8K, 37 C, antibody captured on Protein A chip, IL-34 flowed; mean of at least three experiments (SD 2.9E-05 in r10c5)
Method: as §2

[4] = target: T1, human IL-34; assay: cell-based or functional assay
[5] = target: T2, cynomolgus monkey IL-34 (cynomolgus monkey, UniProt G7Q1L3 21-242); assay: SPR, BIAcore 8K, 37 C, antibody captured on Protein A chip, IL-34 flowed; mean of at least three experiments (SD 2.0E+06 in r12c4)
T2 construct: Biotinylated in the CSF1R displacement ELISA; also called cyno IL-34
T2 sequence: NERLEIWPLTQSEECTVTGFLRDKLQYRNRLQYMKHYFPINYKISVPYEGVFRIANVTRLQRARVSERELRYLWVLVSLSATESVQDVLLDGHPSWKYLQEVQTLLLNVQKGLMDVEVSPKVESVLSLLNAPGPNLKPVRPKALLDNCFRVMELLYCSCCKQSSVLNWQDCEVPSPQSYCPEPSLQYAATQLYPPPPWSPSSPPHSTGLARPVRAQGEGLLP
Method: as §2

[6] = target: T2, cynomolgus monkey IL-34; assay: SPR, BIAcore 8K, 37 C, antibody captured on Protein A chip, IL-34 flowed; mean of at least three experiments (SD 5.3E-05 in r12c5)
Method: as §2

[7] = target: T2, cynomolgus monkey IL-34; assay: competition ELISA: displacement of biotinylated cyno IL-34 from plate-bound cynomolgus CSF1R ECD-Fc
Method: as §1

[8] = target: T2, cynomolgus monkey IL-34; assay: SPR, BIAcore 8K, 37 C, antibody captured on Protein A chip, IL-34 flowed; mean of at least three experiments (SD 16.2 in r12c6)
Method: as §2

[9] = target: T1, human IL-34; assay: SPR, BIAcore 8K, 37 C, antibody captured on Protein A chip, IL-34 flowed; mean of at least three experiments (SD 4.8 in r10c6)
Method: as §2

IC50 [1]: 0.154 nM | kon [2]: 8.4e+06 M⁻¹ s⁻¹ | koff [3]: 0.00026 s⁻¹ | IC50 (ug/ml), neutralization of human IL-34 induced luciferase reporter activity in hCSF1R expressing 293 SRE cells [4]: 0.0458 µg/mL | kon [5]: 7.9e+06 M⁻¹ s⁻¹ | koff [6]: 0.0003 s⁻¹ | IC50 [7]: 0.644 nM | Kd [8]: 0.0409 nM | Kd [9]: 0.0312 nM
B1: Antibody 1 (antibody, human IgG4 S228P, kappa, F234A L235A, V domains shown)
VH: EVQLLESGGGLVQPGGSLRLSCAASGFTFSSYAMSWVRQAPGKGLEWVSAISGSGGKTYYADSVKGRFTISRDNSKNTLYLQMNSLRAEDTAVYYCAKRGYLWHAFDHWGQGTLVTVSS
VL: EIVLTQSPGTLSLSPGERATLSCRASQSVSSLYLAWYQQKPGQAPRLLIYGASSRATGIPDRFSGSGSGTDFTLTISRLEPEDFAVYYCQVVGSSPPFTFGGGTKVEIKR
notes: Fully human anti-IL-34 IgG4 (IgG4 PAA hinge/Fc, C-terminal lysine deleted), kappa light chain; also called Exemplified Antibody 1; exemplified antibody 1
